For orientation: Kd means the concentration at which binding is half-saturated. Low readings indicate a tighter complex, high ones a looser complex.

In patent publication US20240383984A1 (Genentech, published 2024) one finds Kd data, which are given here for 29 molecules.

The target in assay [1] is T1, human FcRH5 protein fragment (soluble) (human, UniProt Q96RD9 16-851).
T1 construct: whole entry named; also called soluble human FcRH5; Human FcRH5 (BIACORE analyte)
T1 sequence: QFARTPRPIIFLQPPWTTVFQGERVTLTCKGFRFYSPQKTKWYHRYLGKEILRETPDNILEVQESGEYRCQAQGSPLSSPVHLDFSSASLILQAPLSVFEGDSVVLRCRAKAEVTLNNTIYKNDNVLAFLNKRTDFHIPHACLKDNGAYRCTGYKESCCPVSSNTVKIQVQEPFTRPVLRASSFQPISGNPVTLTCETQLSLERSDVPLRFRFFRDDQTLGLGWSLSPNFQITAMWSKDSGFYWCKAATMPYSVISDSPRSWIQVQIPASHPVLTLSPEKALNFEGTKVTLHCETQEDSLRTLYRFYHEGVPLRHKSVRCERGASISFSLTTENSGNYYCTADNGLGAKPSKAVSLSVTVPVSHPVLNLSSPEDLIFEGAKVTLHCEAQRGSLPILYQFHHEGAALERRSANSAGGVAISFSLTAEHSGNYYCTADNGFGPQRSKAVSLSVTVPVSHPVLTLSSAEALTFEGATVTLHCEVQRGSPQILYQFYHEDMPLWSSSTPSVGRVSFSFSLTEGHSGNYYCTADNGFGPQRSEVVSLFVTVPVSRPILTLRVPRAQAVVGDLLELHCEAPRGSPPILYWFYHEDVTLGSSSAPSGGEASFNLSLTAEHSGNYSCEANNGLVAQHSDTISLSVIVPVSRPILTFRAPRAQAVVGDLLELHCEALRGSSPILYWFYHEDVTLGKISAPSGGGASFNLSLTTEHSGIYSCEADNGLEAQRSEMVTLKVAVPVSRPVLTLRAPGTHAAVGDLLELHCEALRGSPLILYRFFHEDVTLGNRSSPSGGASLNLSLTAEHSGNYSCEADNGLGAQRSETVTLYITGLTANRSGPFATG
Description: SPR, hIgG capture, screening. How it is done:
(§1) Briefly, a human IgG capture surface was generated on a Series S CM5 chip using amine coupling and the human IgG capture kit (GE Life Sciences, Piscataway, NJ). Test antibodies were then captured on flow cells 2, 3, or 4, with flow cell 1 used as a reference. An FcRH5 protein fragment was used as the analyte, with a flow rate of […]. Between injections the capture surface was regenerated by a 30-second injection of 3M magnesium chloride or 10 mM glycine, pH 1.5. Interactions were assessed at 25° C. in 10 mM HEPES pH7.4, 150 mM NaCl, and 0.05% Tween 20 (HBSP). Reference data from the reference flow cell and from injection of buffer alone were subtracted prior to kinetic analysis. Kinetic information was calculated by fitting data to a 1:1 binding model. Reference subtraction and data fitting were performed using BIAevaluation software (GE Life Sciences, Piscataway, NJ).
(§2) For affinity screening of HVR-H2 Trp52 and Met64 variants (Table 7), antibodies were expressed by transient transfection of Expi293 cells and purified using tip columns that were custom packed with affinity resin MabSelect SuRe (Glygen Corp., Columbia, MD & GE Life Sciences, Piscataway, NJ). […] Binding of FcRH5 protein fragment to captured antibodies was monitored at 100 nM and 500 nM. Association and dissociation were monitored at a flow rate of 40 μl/min, for 180 s and 300 s, respectively.
Background: SPR reads the build-up and loss of mass on a sensor chip optically.

The target in assay [2] is T1, human FcRH5 protein fragment (soluble). Description: SPR (BIACORE), IgG captured via anti-human IgG, FcRH5 protein fragment as analyte (100 and 500 nM). The protocol:
as §1, §2

Positions count from the first letter of the chain named. In names and notes the source's numbering stands.

B1: hu1G7.v1 heavy chain M64F with light chain of hu1G7.v1 (antibody, V domains shown)
VH: EVQLVESGPGLVKPSETLSLTCTVSGFSLTRFGVHWVRQPPGKGLEWLGVIWRGGSTDYNAAFFSRLTISKDNSKNQVSLKLSSVTAADTAVYYCSNHYYGSSDYALDNWGQGTLVTVSS
VL: DIQMTQSPSSLSASVGDRVTITCKASQDVSNIVVWFQQKPGKSPKLLIYSASYRYTGVPSRFSGSGSGTDFTLTISSLQPEDFATYYCQQHYSSPYTFGQGTKVEIK
notes: human IgG
For the molecule B1, the Kd turned out to be 26 nM in assay [1] and 25.9 nM in assay [2].

B2: hu1G7.v1 heavy chain M64F with light chain of hu1G7.v1.6 (antibody, V domains shown)
VH: B1 VH
VL: B1 VL with S43A, A51G, S52Y, T56S, H91Q, S93Q, S94P
notes: human IgG
On to B2, for which the Kd in assay [1] and in assay [2] was 2.6 nM throughout.

B3: hu1G7.v1 heavy chain W52F with light chain of hu1G7.v1 (antibody, V domains shown)
VH: B1 VH with W52F, F64M
VL: B1 VL
notes: human IgG
Turning to B3, the Kd came to 250 nM in assay [1] and 254 nM in assay [2].

B4: hu1G7.v1 heavy chain M64I with light chain of hu1G7.v1.5 (antibody, V domains shown)
VH: B1 VH with F64I
VL: B1 VL with A51G, S52Y, H91Q, Y92F, S93Q, S94P
notes: human IgG
Consider B4, for which the Kd in assay [1] and in assay [2] was 2.7 nM throughout.

B5: hu1G7.v1 heavy chain M64V with light chain of hu1G7.v1.3 (antibody, V domains shown)
VH: B1 VH with F64V
VL: B1 VL with S30R, S43A, A51G, T56S, H91Q, S94P
notes: human IgG
In the case of B5, the dissociation constant (Kd) in assay [1] and in assay [2] was 2.5 nM throughout.

B6: hu1G7.v1 heavy chain W52H with light chain of hu1G7.v1 (antibody, V domains shown)
VH: B1 VH with W52H, F64M
VL: B1 VL
notes: human IgG
On to B6, for which the Kd in assay [1] and in assay [2] was 120 nM in each case.

B7: hu1G7.v1 heavy chain M64V with light chain of hu1G7.v1.5 (antibody, V domains shown)
VH: B1 VH with F64V
VL: B1 VL with A51G, S52Y, H91Q, Y92F, S93Q, S94P
notes: human IgG
As for B7, the Kd in assay [1] and in assay [2] was 2.5 nM throughout.

B8: hu1G7.v1 heavy chain W52F with light chain of hu1G7.v1.5 (antibody, V domains shown)
VH: B1 VH with W52F, F64M
VL: B1 VL with A51G, S52Y, H91Q, Y92F, S93Q, S94P
notes: human IgG
B8: the Kd in assay [1] stood at 48 nM; in assay [2], 47.5 nM.

B9: hu1G7.v1 heavy chain M64I with light chain of hu1G7.v1.6 (antibody, V domains shown)
VH: B1 VH with F64I
VL: B1 VL with S43A, A51G, S52Y, T56S, H91Q, S93Q, S94P
notes: human IgG
As to B9, the Kd in assay [1] and in assay [2] was 2.7 nM each time.

B10: hu1G7.v1 heavy chain M64V with light chain of hu1G7.v1.6 (antibody, V domains shown)
VH: B1 VH with F64V
VL: B1 VL with S43A, A51G, S52Y, T56S, H91Q, S93Q, S94P
notes: human IgG
On to B10, for which the Kd in assay [1] and in assay [2] was 2.7 nM throughout.

B11: hu1G7.v1 heavy chain M64I with light chain of hu1G7.v1.3 (antibody, V domains shown)
VH: B1 VH with F64I
VL: B1 VL with S30R, S43A, A51G, T56S, H91Q, S94P
notes: human IgG
Regarding B11, the Kd in assay [1] and in assay [2] was 2.1 nM each time.

B12: hu1G7.v1 heavy chain W52F with light chain of hu1G7.v1.7 (antibody, V domains shown)
VH: B1 VH with W52F, F64M
VL: B1 VL with S30R, I32L, S43A, A51G, S52Y, S93Q, S94P
notes: human IgG
As for B12, the results for the Kd in assay [1] and in assay [2] were 77 nM and 76.6 nM, respectively.

B13: hu1G7.v1 heavy chain W52F with light chain of hu1G7.v1.6 (antibody, V domains shown)
VH: B1 VH with W52F, F64M
VL: B1 VL with S43A, A51G, S52Y, T56S, H91Q, S93Q, S94P
notes: human IgG
Consider B13, for which the Kd was determined as 81 nM in assay [1] and 81.4 nM in assay [2].

B14: hu1G7.v1 heavy chain W52H with light chain of hu1G7.v1.3 (antibody, V domains shown)
VH: B1 VH with W52H, F64M
VL: B1 VL with S30R, S43A, A51G, T56S, H91Q, S94P
notes: human IgG
For B14, the dissociation constant (Kd) in assay [1] worked out at 66 nM; in assay [2], 65.5 nM.

B15: hu1G7.v1 heavy chain M64I with light chain of hu1G7.v1 (antibody, V domains shown)
VH: B1 VH with F64I
VL: B1 VL
notes: human IgG
As for B15, the values for the Kd in assay [1] and in assay [2] were 30 nM and 29.8 nM, respectively.

B16: hu1G7.v1 heavy chain M64F with light chain of hu1G7.v1.7 (antibody, V domains shown)
VH: B1 VH
VL: B1 VL with S30R, I32L, S43A, A51G, S52Y, S93Q, S94P
notes: human IgG
Take B16: the Kd in assay [1] and in assay [2] was 2.4 nM each time.

B17: hu1G7.v1 heavy chain M64L with light chain of hu1G7.v1 (antibody, V domains shown)
VH: B1 VH with F64L
VL: B1 VL
notes: human IgG
In the case of B17, the dissociation constant Kd in assay [1] turned out to be 27 nM; in assay [2], 26.5 nM.

B18: hu1G7.v1 heavy chain M64L with light chain of hu1G7.v1.3 (antibody, V domains shown)
VH: B1 VH with F64L
VL: B1 VL with S30R, S43A, A51G, T56S, H91Q, S94P
notes: human IgG
As to B18, the Kd in assay [1] and in assay [2] was 2.4 nM each time.

B19: hu1G7.v1 heavy chain M64L with light chain of hu1G7.v1.4 (antibody, V domains shown)
VH: B1 VH with F64L
VL: B1 VL with S30R, I32L, S43A, A51G, T56S, S94P
notes: human IgG
Regarding B19, the Kd in assay [1] and in assay [2] was 2.5 nM throughout.

B20: hu1G7.v1 heavy chain M64L with light chain of hu1G7.v1.6 (antibody, V domains shown)
VH: B1 VH with F64L
VL: B1 VL with S43A, A51G, S52Y, T56S, H91Q, S93Q, S94P
notes: human IgG
Turning to B20, the Kd in assay [1] and in assay [2] was 2.6 nM in each case.

B21: hu1G7.v1 heavy chain M64F with light chain of hu1G7.v1.5 (antibody, V domains shown)
VH: B1 VH
VL: B1 VL with A51G, S52Y, H91Q, Y92F, S93Q, S94P
notes: human IgG
In the case of B21, the dissociation constant (Kd) in assay [1] and in assay [2] was 1.4 nM each time.

B22: hu1G7.v1 heavy chain M64F with light chain of hu1G7.v1.4 (antibody, V domains shown)
VH: B1 VH
VL: B1 VL with S30R, I32L, S43A, A51G, T56S, S94P
notes: human IgG
For the molecule B22, the Kd in assay [1] and in assay [2] was 2.5 nM throughout.

B23: hu1G7.v1 heavy chain M64V with light chain of hu1G7.v1.7 (antibody, V domains shown)
VH: B1 VH with F64V
VL: B1 VL with S30R, I32L, S43A, A51G, S52Y, S93Q, S94P
notes: human IgG
Consider B23, for which the Kd in assay [1] and in assay [2] was 2.5 nM in each case.

B24: hu1G7.v1 heavy chain M64L with light chain of hu1G7.v1.5 (antibody, V domains shown)
VH: B1 VH with F64L
VL: B1 VL with A51G, S52Y, H91Q, Y92F, S93Q, S94P
notes: human IgG
B24: the Kd in assay [1] and in assay [2] was 2.3 nM in each case.

B25: hu1G7.v1 heavy chain M64I with light chain of hu1G7.v1.4 (antibody, V domains shown)
VH: B1 VH with F64I
VL: B1 VL with S30R, I32L, S43A, A51G, T56S, S94P
notes: human IgG
B25: the Kd in assay [1] and in assay [2] was 2.5 nM in each case.

B26: hu1G7.v1 heavy chain W52F with light chain of hu1G7.v1.3 (antibody, V domains shown)
VH: B1 VH with W52F, F64M
VL: B1 VL with S30R, S43A, A51G, T56S, H91Q, S94P
notes: human IgG
On to B26, for which the Kd stood at 180 nM in assay [1] and 177 nM in assay [2].

B27: hu1G7.v1 heavy chain M64I with light chain of hu1G7.v1.7 (antibody, V domains shown)
VH: B1 VH with F64I
VL: B1 VL with S30R, I32L, S43A, A51G, S52Y, S93Q, S94P
notes: human IgG
Turning to B27, the dissociation constant Kd in assay [1] and in assay [2] was 2.6 nM in each case.

B28: hu1G7.v1 heavy chain W52F with light chain of hu1G7.v1.4 (antibody, V domains shown)
VH: B1 VH with W52F, F64M
VL: B1 VL with S30R, I32L, S43A, A51G, T56S, S94P
notes: human IgG
In the case of B28, the Kd was found to be 120 nM in assay [1] and 119 nM in assay [2].

B29: hu1G7.v1 heavy chain M64F with light chain of hu1G7.v1.3 (antibody, V domains shown)
VH: B1 VH
VL: B1 VL with S30R, S43A, A51G, T56S, H91Q, S94P
notes: human IgG
Take B29: the dissociation constant Kd in assay [1] and in assay [2] was 2.2 nM throughout.
